Columns and labels:
Assay in all cases: pull-down binding Z-score (relative to library population); higher = stronger binding
Details in all cases: RNA library: Library-2
[1] = tested on: TO-N3-2 (biotin conjugate)
In short: (§1)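 Binding is given as a Z-score against the library mean and standard deviation, calculated after removing the beads-only signal and averaging barcoded replicate probes without their highest and lowest values. Cy5- or Cy3-end-labelled RNA library (1 μg) was heat-folded in phosphate/NaCl/KCl buffer and incubated 60 min at 25 °C with streptavidin beads bearing 100 pmol of biotin-conjugated small molecule. After three washes, RNA eluted in hot SDS was hybridised to a DNA barcode microarray for 20 h at 55.5 °C.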

[2] = tested on: TO-3-N3 (biotin conjugate)
In short: as §1

[3] = tested on: TO-3-N3-2 (biotin conjugate)
In short: as §1

TO-N3 (biotin conjugate) = tested on: TO-N3 (biotin conjugate)
In short: as §1

Sequence	pull-down binding Z-score [1]	pull-down binding Z-score [2]	pull-down binding Z-score [3]	pull-down binding Z-score (TO-N3 (biotin conjugate))
AAAAACACCCAAGAAGUUUUU	-0.932	-0.552	-0.458	-0.802
AAAAAUCUUAGGGAAUUUGUGUUUAAGAAUAUUGAUGGUUAUUUUAAAAUAUAUUCUAAGCACACGCCUAUUAAUUUAGUGCGUGAUCUCCCUCAGGGUUUUU	-0.421	-0.855	0.151	-0.959
AAACCCGGUAAUUUUAACAAAGACUUCUAUGACUUUGCUGUGUCUAAGGGUUU [SHAPE_invivo_SARS-CoV-2_Motif_278]	-0.917	-0.52	-0.338	-0.677
AAACCUAAUGAAUUAUCUAGAGUAUUAGGUUU [SHAPE_invitro_SARS-CoV-2_Motif_132]	-1.06	-0.888	-0.157	-0.985
AAACGAACUAAAUAUUAUAUUAGUUUUUCUGUUU	-0.324	-0.375	0.491	-0.211
AAACUCAAACCCGUCCUUGAUUGGCUUGAAGAGAAGUUUAAGGAAGGUGUAGAGUUU	-0.346	-0.653	0.119	-0.588
AAACUUGUGCCCUUUUGGUGAAGUUUUUAACGCCACCAGAUUUGCAUCUGUUU [SHAPE_invivo_SARS-CoV-2_Motif_425]	-0.751	-1.12	-0.449	-1.3
AAAGGACUGGUAUGAUUUUGUAGAAAACCCAGAUAUAUUACGCGUAUACGCCAACUUAGGUGAACGUGUACGCCAAGCUUU	0.0415	-0.541	-0.0434	-0.193
AAAGUGCAGUGAAAAGAACAAUCAAGGGUACACACCACUGGUUGUUACUCACAAUUUUGACUUCACUUU	0.0106	-0.381	-0.0864	-0.172
AAAGUGCUUUUGUUAAUUUAAAACAAUUACCAUUUU [SHAPE_invivo_SARS-CoV-2_Motif_363]	-1.63	-0.825	-0.408	-1.18
AAAUAAGUACGAUACUUACCUG [U1snRNP5ss-3]	0.324	-0.109	0.279	-0.0474
AAAUAAGUAUGAUACUUACCUG [U1snRNP5ss-4]	-0.672	-0.522	-0.0682	-0.506
AAAUUACCAUUUCAUCUUUUAAAUGGGAUUU	-1.21	0.204	-0.151	-0.0633
AAAUUCUUGGAACUGUUUCUUGGAAUUU	-1.37	-0.802	-0.163	-1.22
AAAUUGCCGAUAAGUAUGUCCGCAAUUU	-1.13	-0.317	-0.436	-0.683
AAAUUUACAAAACACCACCAAUUAAAGAUUUUGGUGGUUUUAAUUU [DMSMaPseq_invitro_SARS-CoV-2_Motif_425]	-0.725	1.34	0.331	1.06
AAAUUUACAAGAAUUU [SHAPE_invivo_SARS-CoV-2_Motif_380]	-1.48	-0.131	-0.556	-0.556
AAAUUUUUGGCUUUGUGUGCUGACUCUAUCAUUAUUGGUGGAGCUAAACUUAAAGCCUUGAAUUU [SHAPE_invivo_SARS-CoV-2_Motif_45]	-0.994	0.0535	-0.123	-0.00867
AACAAAUGUGUCAAUUUCAACUUCAAUGGUUUAACAGGCACAGGUGUU	-0.968	-0.698	-0.221	-0.754
AACACCAGUUUACUCAUUCUUACCUGGUGUU	-1.46	-0.56	-0.421	-0.829
AACACUUCCCACAGAAGUGUU	-0.817	-0.222	-0.407	0.0543
AACAGCAGACAACCCUUAAGGGUGUAGAAGCUGUU	-0.918	-0.872	-0.692	-1.19
AACAGGAGUCACCUUUUGUU	-0.716	-0.0743	-0.0265	-0.267
AACAUUAACCUCCACACGCAAGUUGUGGACAUGUCAAUGACAUAUGGACAACAGUUUGGUCCAACUUAUUUGGAUGGAGCUGAUGUU	-0.533	-1	-0.423	-1.13
AACAUUUACUUAUGCAUCAGCAUUGUGGGAAAUCCAACAGGUUGUAGAUGCAGAUAGUAAAAUUGUU [DMSMaPseq_invitro_SARS-CoV-2_Motif_222]	-0.134	0.159	-0.0746	-0.126
AACCAGUUAACUGGUU [SHAPE_invivo_SARS-CoV-2_Motif_126]	-1.24	0.328	-0.406	0.00533
AACCAUACAGGUGUUGUUGGAGAAGGUU [DMSMaPseq_invitro_SARS-CoV-2_Motif_31]	-0.444	0.0755	0.125	-0.0691
AACCCUCACCUUAUGGGUU	-1.48	-0.558	-0.745	-0.946
AACGAACUUUAAAAUCUGUGUGGCUGUCACUCGGCUGCAUGCUUAGUGCACUCACGCAGUAUAAUUAAUAACUAAUUACUGUCGUU	-0.131	-1.01	-0.0969	-0.781

From the supplement of paper PMC11865577
